Measurements from patent publication US20200270325A1 (Merck Sharp & Dohme, published 2020).
Numbered stars: 1 amine (or outer) side, 2 acyl side, 3 side chain; on linkers, the order of the positions; unused ones are H or OH. Square brackets hold non-standard residues; d marks the D form. Side chains are listed from the residue outwards. Ends that are not written are not given here. * marks the point of attachment. Phe(4-CH2NH2) = NCc1ccc(C[C@H](N)C(=O)O)cc1; C18 diacid = O=C(O)CCCCCCCCCCCCCCCCC(=O)*; αMeW = C[C@](N)(Cc1c[nH]c2ccccc12)C(=O)O; C16 diacid = O=C(O)CCCCCCCCCCCCCCC(=O)*; γGlu = O=C(O)[C@H](CCC(=O)[*:2])N[*:1]; Met(O2) = CS(=O)(=O)CC[C@H](N)C(=O)O; αMeF = C[C@](N)(Cc1ccccc1)C(=O)O; αMeD = C[C@](N)(CC(=O)O)C(=O)O; AEEA = NCCOCCOCC(=O)O; Aib = CC(C)(N)C(=O)O

Columns and labels:
[1] = molecular target: human GLP-1 receptor (GLP1R) (human, UniProt P43220 24-463); assay: cell-based or functional assay
[2] = molecular target: human Glucagon receptor (GCGR) (human, UniProt P47871 26-477); assay: cell-based or functional assay
Chain of human Glucagon receptor (GCGR) (P47871 26-477): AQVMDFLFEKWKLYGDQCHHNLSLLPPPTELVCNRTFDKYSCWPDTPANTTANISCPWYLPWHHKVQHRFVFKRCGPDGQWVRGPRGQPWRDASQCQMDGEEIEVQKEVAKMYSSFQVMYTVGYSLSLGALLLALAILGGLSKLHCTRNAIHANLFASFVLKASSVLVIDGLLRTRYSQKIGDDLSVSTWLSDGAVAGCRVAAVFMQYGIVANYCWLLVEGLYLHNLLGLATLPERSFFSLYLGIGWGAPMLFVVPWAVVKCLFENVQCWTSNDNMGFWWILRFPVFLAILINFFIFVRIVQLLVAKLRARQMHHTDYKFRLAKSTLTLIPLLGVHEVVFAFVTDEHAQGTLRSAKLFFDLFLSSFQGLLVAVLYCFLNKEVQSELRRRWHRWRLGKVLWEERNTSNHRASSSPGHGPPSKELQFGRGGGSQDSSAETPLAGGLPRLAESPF

| Binder | GLP1R EC50 human [1] [nM] | GCGR EC50 human [2] [nM] |
| --- | --- | --- |
| H[Aib]QGTFTSDYSKYLDARAAQ[Phe(4-CH2NH2)]([AEEA-AEEA-γGlu-C18 diacid])FVQWLL[αMeD]T-NH2 (N-terminus assumed; SMILES CC(C)C[C@H](NC(=O)[C@H](Cc1ccc(O)cc1)NC(=O)[C@H](CCCCN)NC(=O)[C@H](CO)NC(=O)[C@H](Cc1ccc(O)cc1)NC(=O)[C@H](CC(=O)O)NC(=O)[C@H](CO)NC(=O)[C@@H](NC(=O)[C@H](Cc1ccccc1)NC(=O)[C@@H](NC(=O)CNC(=O)[C@H](CCC(N)=O)NC(=O)C(C)(C)NC(=O)[C@@H](N)Cc1c[nH]cn1)[C@@H](C)O)[C@@H](C)O)C(=O)N[C@@H](CC(=O)O)C(=O)N[C@@H](C)C(=O)N[C@@H](CCCNC(=N)N)C(=O)N[C@@H](C)C(=O)N[C@@H](C)C(=O)N[C@@H](CCC(N)=O)C(=O)N[C@@H](Cc1ccc(CNC(=O)COCCOCCNC(=O)COCCOCCNC(=O)CC[C@H](NC(=O)CCCCCCCCCCCCCCCCC(=O)O)C(=O)O)cc1)C(=O)N[C@@H](Cc1ccccc1)C(=O)N[C@H](C(=O)N[C@@H](CCC(N)=O)C(=O)N[C@@H](Cc1c[nH]c2ccccc12)C(=O)N[C@@H](CC(C)C)C(=O)N[C@@H](CC(C)C)C(=O)N[C@@](C)(CC(=O)O)C(=O)N[C@H](C(N)=O)[C@@H](C)O)C(C)C) [TP609] | 0.42 | 0.36 |
| H[Aib]QGTFTSDYSKYLDAKAAK([AEEA-AEEA-γGlu-C18 diacid])DFVQWL[Met(O2)]DT-NH2 (N-terminus assumed; SMILES CC(C)C[C@H](NC(=O)[C@H](Cc1ccc(O)cc1)NC(=O)[C@H](CCCCN)NC(=O)[C@H](CO)NC(=O)[C@H](Cc1ccc(O)cc1)NC(=O)[C@H](CC(=O)O)NC(=O)[C@H](CO)NC(=O)[C@@H](NC(=O)[C@H](Cc1ccccc1)NC(=O)[C@@H](NC(=O)CNC(=O)[C@H](CCC(N)=O)NC(=O)C(C)(C)NC(=O)[C@@H](N)Cc1c[nH]cn1)[C@@H](C)O)[C@@H](C)O)C(=O)N[C@@H](CC(=O)O)C(=O)N[C@@H](C)C(=O)N[C@@H](CCCCN)C(=O)N[C@@H](C)C(=O)N[C@@H](C)C(=O)N[C@@H](CCCCNC(=O)COCCOCCNC(=O)COCCOCCNC(=O)CC[C@H](NC(=O)CCCCCCCCCCCCCCCCC(=O)O)C(=O)O)C(=O)N[C@@H](CC(=O)O)C(=O)N[C@@H](Cc1ccccc1)C(=O)N[C@H](C(=O)N[C@@H](CCC(N)=O)C(=O)N[C@@H](Cc1c[nH]c2ccccc12)C(=O)N[C@@H](CC(C)C)C(=O)N[C@@H](CCS(C)(=O)=O)C(=O)N[C@@H](CC(=O)O)C(=O)N[C@H](C(N)=O)[C@@H](C)O)C(C)C) [TP598] | 0.5 | 1.14 |
| H[Aib]QGTFTSDYSKLLDARAAK([AEEA-AEEA-γGlu-C18 diacid])DFVQWL[Met(O2)][αMeD]T-NH2 (N-terminus assumed; SMILES CC(C)C[C@H](NC(=O)[C@H](CC(C)C)NC(=O)[C@H](CCCCN)NC(=O)[C@H](CO)NC(=O)[C@H](Cc1ccc(O)cc1)NC(=O)[C@H](CC(=O)O)NC(=O)[C@H](CO)NC(=O)[C@@H](NC(=O)[C@H](Cc1ccccc1)NC(=O)[C@@H](NC(=O)CNC(=O)[C@H](CCC(N)=O)NC(=O)C(C)(C)NC(=O)[C@@H](N)Cc1c[nH]cn1)[C@@H](C)O)[C@@H](C)O)C(=O)N[C@@H](CC(=O)O)C(=O)N[C@@H](C)C(=O)N[C@@H](CCCNC(=N)N)C(=O)N[C@@H](C)C(=O)N[C@@H](C)C(=O)N[C@@H](CCCCNC(=O)COCCOCCNC(=O)COCCOCCNC(=O)CC[C@H](NC(=O)CCCCCCCCCCCCCCCCC(=O)O)C(=O)O)C(=O)N[C@@H](CC(=O)O)C(=O)N[C@@H](Cc1ccccc1)C(=O)N[C@H](C(=O)N[C@@H](CCC(N)=O)C(=O)N[C@@H](Cc1c[nH]c2ccccc12)C(=O)N[C@@H](CC(C)C)C(=O)N[C@@H](CCS(C)(=O)=O)C(=O)N[C@@](C)(CC(=O)O)C(=O)N[C@H](C(N)=O)[C@@H](C)O)C(C)C) [TP640] | 0.84 | 0.69 |
| H[Aib]QGTFTSDYSKYLDARAAQDFVQWL[Met(O2)][Phe(4-CH2NH2)]([AEEA-AEEA-γGlu-C18 diacid])T-NH2 (N-terminus assumed; SMILES CC(C)C[C@H](NC(=O)[C@H](Cc1ccc(O)cc1)NC(=O)[C@H](CCCCN)NC(=O)[C@H](CO)NC(=O)[C@H](Cc1ccc(O)cc1)NC(=O)[C@H](CC(=O)O)NC(=O)[C@H](CO)NC(=O)[C@@H](NC(=O)[C@H](Cc1ccccc1)NC(=O)[C@@H](NC(=O)CNC(=O)[C@H](CCC(N)=O)NC(=O)C(C)(C)NC(=O)[C@@H](N)Cc1c[nH]cn1)[C@@H](C)O)[C@@H](C)O)C(=O)N[C@@H](CC(=O)O)C(=O)N[C@@H](C)C(=O)N[C@@H](CCCNC(=N)N)C(=O)N[C@@H](C)C(=O)N[C@@H](C)C(=O)N[C@@H](CCC(N)=O)C(=O)N[C@@H](CC(=O)O)C(=O)N[C@@H](Cc1ccccc1)C(=O)N[C@H](C(=O)N[C@@H](CCC(N)=O)C(=O)N[C@@H](Cc1c[nH]c2ccccc12)C(=O)N[C@@H](CC(C)C)C(=O)N[C@@H](CCS(C)(=O)=O)C(=O)N[C@@H](Cc1ccc(CNC(=O)COCCOCCNC(=O)COCCOCCNC(=O)CC[C@H](NC(=O)CCCCCCCCCCCCCCCCC(=O)O)C(=O)O)cc1)C(=O)N[C@H](C(N)=O)[C@@H](C)O)C(C)C) [TP604] | 0.47 | 1.09 |
| H[Aib]QGTFTSDYSKYLDARAAQ[Phe(4-CH2NH2)]([AEEA-AEEA-γGlu-C18 diacid])FVQWLLDT-NH2 (N-terminus assumed; SMILES CC(C)C[C@H](NC(=O)[C@H](Cc1ccc(O)cc1)NC(=O)[C@H](CCCCN)NC(=O)[C@H](CO)NC(=O)[C@H](Cc1ccc(O)cc1)NC(=O)[C@H](CC(=O)O)NC(=O)[C@H](CO)NC(=O)[C@@H](NC(=O)[C@H](Cc1ccccc1)NC(=O)[C@@H](NC(=O)CNC(=O)[C@H](CCC(N)=O)NC(=O)C(C)(C)NC(=O)[C@@H](N)Cc1c[nH]cn1)[C@@H](C)O)[C@@H](C)O)C(=O)N[C@@H](CC(=O)O)C(=O)N[C@@H](C)C(=O)N[C@@H](CCCNC(=N)N)C(=O)N[C@@H](C)C(=O)N[C@@H](C)C(=O)N[C@@H](CCC(N)=O)C(=O)N[C@@H](Cc1ccc(CNC(=O)COCCOCCNC(=O)COCCOCCNC(=O)CC[C@H](NC(=O)CCCCCCCCCCCCCCCCC(=O)O)C(=O)O)cc1)C(=O)N[C@@H](Cc1ccccc1)C(=O)N[C@H](C(=O)N[C@@H](CCC(N)=O)C(=O)N[C@@H](Cc1c[nH]c2ccccc12)C(=O)N[C@@H](CC(C)C)C(=O)N[C@@H](CC(C)C)C(=O)N[C@@H](CC(=O)O)C(=O)N[C@H](C(N)=O)[C@@H](C)O)C(C)C) [TP443] | 0.1 | 0.18 |
| HXQGTFTSDYSKYLDARAAQXFVQWLXXT (Aib (U) at 2; K(PEG5-γEC18-OH) at 21; L-methionine sulphone (2) at 27; αMD (printed aMD) at 28; C-terminal amide) [TP608] | 0.23 | 0.21 |
| H[Aib]QGTFTSDYSKYLDARAAK([AEEA-AEEA-γGlu-C20‑OH])D[αMeF]VQWL[Met(O2)]DT-NH2 [TP590] | 1.64 | 5.03 |
| H[Aib]QGTFTSDYSKYLDARAAK([AEEA-AEEA-γGlu-C16 diacid])DFVQ[αMeW]L[Met(O2)]DT-NH2 (N-terminus assumed; SMILES CC(C)C[C@H](NC(=O)[C@H](Cc1ccc(O)cc1)NC(=O)[C@H](CCCCN)NC(=O)[C@H](CO)NC(=O)[C@H](Cc1ccc(O)cc1)NC(=O)[C@H](CC(=O)O)NC(=O)[C@H](CO)NC(=O)[C@@H](NC(=O)[C@H](Cc1ccccc1)NC(=O)[C@@H](NC(=O)CNC(=O)[C@H](CCC(N)=O)NC(=O)C(C)(C)NC(=O)[C@@H](N)Cc1c[nH]cn1)[C@@H](C)O)[C@@H](C)O)C(=O)N[C@@H](CC(=O)O)C(=O)N[C@@H](C)C(=O)N[C@@H](CCCNC(=N)N)C(=O)N[C@@H](C)C(=O)N[C@@H](C)C(=O)N[C@@H](CCCCNC(=O)COCCOCCNC(=O)COCCOCCNC(=O)CC[C@H](NC(=O)CCCCCCCCCCCCCCC(=O)O)C(=O)O)C(=O)N[C@@H](CC(=O)O)C(=O)N[C@@H](Cc1ccccc1)C(=O)N[C@H](C(=O)N[C@@H](CCC(N)=O)C(=O)N[C@@](C)(Cc1c[nH]c2ccccc12)C(=O)N[C@@H](CC(C)C)C(=O)N[C@@H](CCS(C)(=O)=O)C(=O)N[C@@H](CC(=O)O)C(=O)N[C@H](C(N)=O)[C@@H](C)O)C(C)C) [TP630] | 0.29 | 0.89 |
| HXQGTFTSDXSKYLDARAAQDFVQWLLDT (D-Ser (s) at 2; Nle(1,2,3-triazole-4-C15) at 10; C-terminal amide) [TP829] | 0.68 | 1.06 |
| H[Aib]QGTFTSDYSKYLDARAAK([AEEA-γGlu-C18 diacid])DFVQWL[Met(O2)][αMeD]T-NH2 (N-terminus assumed; SMILES CC(C)C[C@H](NC(=O)[C@H](Cc1ccc(O)cc1)NC(=O)[C@H](CCCCN)NC(=O)[C@H](CO)NC(=O)[C@H](Cc1ccc(O)cc1)NC(=O)[C@H](CC(=O)O)NC(=O)[C@H](CO)NC(=O)[C@@H](NC(=O)[C@H](Cc1ccccc1)NC(=O)[C@@H](NC(=O)CNC(=O)[C@H](CCC(N)=O)NC(=O)C(C)(C)NC(=O)[C@@H](N)Cc1c[nH]cn1)[C@@H](C)O)[C@@H](C)O)C(=O)N[C@@H](CC(=O)O)C(=O)N[C@@H](C)C(=O)N[C@@H](CCCNC(=N)N)C(=O)N[C@@H](C)C(=O)N[C@@H](C)C(=O)N[C@@H](CCCCNC(=O)COCCOCCNC(=O)CC[C@H](NC(=O)CCCCCCCCCCCCCCCCC(=O)O)C(=O)O)C(=O)N[C@@H](CC(=O)O)C(=O)N[C@@H](Cc1ccccc1)C(=O)N[C@H](C(=O)N[C@@H](CCC(N)=O)C(=O)N[C@@H](Cc1c[nH]c2ccccc12)C(=O)N[C@@H](CC(C)C)C(=O)N[C@@H](CCS(C)(=O)=O)C(=O)N[C@@](C)(CC(=O)O)C(=O)N[C@H](C(N)=O)[C@@H](C)O)C(C)C) [TP628] | 1.39 | 0.86 |
